Measurements taken from patent US20120282285.

B1: MBL-Associated Serine Protease-2 (MASP-2) (protein)
chain: TPLGPKWPEPVFGRLASPGFPGEYANDQERRWTLTAPPGYRLRLYFTHFDLELSHLCEYDFVKLSSGAKVLATLCGQESTDTERAPGKDTFYSLGSSLDITFRSDYSNEKPFTGFEAFYAAEDIDECQVAPGEAPTCDHHCHNHLGGFYCSCRAGYVLHRNKRTCSALCSGQVFTQRSGELSSPEYPRPYPKLSSCTYSISLEEGFSVILDFVESFDVETHPETLCPYDFLKIQTDREEHGPFCGKTLPHRIETKSNTVTITFVTDESGDHTGWKIHYTSTAQPCPYPMAPPNGHVSPVQAKYILKDSFSIFCETGYELLQGHLPLKSFTAVCQKDGSWDRPMPACSIVDCGPPDDLPSGRVEYITGPGVTTYKAVIQYSCEETFYTMKVNDGKYVCEADGFWTSSKGEKSLPVCEPVCGLSARTTGGRIYGGQKAKPGDFPWQVLILGGTTAAGALLYDNWVLTAAHAVYEQKHDASALDIRMGTLKRLSPHYTQAWSEAVFIHEGYTHDAGFDNDIALIKLNNKVVINSNITPICLPRKEAESFMRTDDIGTASGWGLTQRGFLARNLMYVDIPIVDHQKCTAAYEKPPYPRGSVTANMLCAGLESGGKDSCRGDSGGALVFLDSETERWFVGGIVSWGSMNCGEAGQYGVYTKVINYIPWIENIISDF
B2: MBL-Associated Serine Protease-1 (MASP-1) (protein)
chain: HTVELNNMFGQIQSPGYPDSYPSDSEVTWNITVPDGFRIKLYFMHFNLESSYLCEYDYVKVETEDQVLATFCGRETTDTEQTPGQEVVLSPGSFMSITFRSDFSNEERFTGFDAHYMAVDVDECKEREDEELSCDHYCHNYIGGYYCSCRFGYILHTDNRTCRVECSDNLFTQRTGVITSPDFPNPYPKSSECLYTIELEEGFMVNLQFEDIFDIEDHPEVPCPYDYIKIKVGPKVLGPFCGEKAPEPISTQSHSVLILFHSDNSGENRGWRLSYRAAGNECPELQPPVHGKIEPSQAKYFFKDQVLVSCDTGYKVLKDNVEMDTFQIECLKDGTWSNKIPTCKIVDCRAPGELEHGLITFSTRNNLTTYKSEIKYSCQEPYYKMLNNNTGIYTCSAQGVWMNKVLGRSLPTCLPVCGLPKFSRKLMARIFNGRPAQKGTTPWIAMLSHLNGQPFCGGSLLGSSWIVTAAHCLHQSLDPEDPTLRDSDLLSPSDFKIILGKHWRLRSDENEQHLGVKHTTLHPQYDPNTFENDVALVELLESPVLNAFVMPICLPEGPQQEGAMVIVSGWGKQFLQRFPETLMEIEIPIVDHSTCQKAYAPLKKKVTRDMICAGEKEGGKDACAGDSGGPMVTLNRERGQWYLVGTVSWGDDCGKKDRYGVYSYIHHNKDWIQRVTGVRN

Experiments:
[1] = biological target: mannose-binding lectin (MBL), P11226
[2] = biological target: Ficolin-3, O75636
Ficolin-3, O75636, sequence (O75636 24-299): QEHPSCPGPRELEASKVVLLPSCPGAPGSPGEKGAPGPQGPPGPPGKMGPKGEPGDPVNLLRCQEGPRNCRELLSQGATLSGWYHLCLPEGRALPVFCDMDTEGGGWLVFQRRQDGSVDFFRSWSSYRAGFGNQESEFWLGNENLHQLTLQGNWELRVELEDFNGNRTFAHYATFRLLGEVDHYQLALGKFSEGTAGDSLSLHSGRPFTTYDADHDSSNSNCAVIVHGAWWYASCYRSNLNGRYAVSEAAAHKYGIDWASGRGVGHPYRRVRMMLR

mannose-binding lectin (MBL), P11226, sequence (P11226 21-248): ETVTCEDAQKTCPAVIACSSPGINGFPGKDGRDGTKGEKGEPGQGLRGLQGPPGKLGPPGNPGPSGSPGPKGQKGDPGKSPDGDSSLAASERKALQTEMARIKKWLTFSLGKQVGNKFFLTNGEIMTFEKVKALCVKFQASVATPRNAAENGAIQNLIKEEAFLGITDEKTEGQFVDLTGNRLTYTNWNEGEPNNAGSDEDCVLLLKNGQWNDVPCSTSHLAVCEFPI

Protein | C4 deposition (OD490-650nm), mannan/rMBL with MBL deficient serum [1] | complement activation (C3 and C4) [1] | C4 deposition (OD490-650nm), AcBSA/rFicolin-3 with Ficolin-3 deficient serum [2]
B1 | Application of rMASP-2 resulted in a strong positive dose dependent enhancement of the C4 deposition via both the Ficolin-3 and MBL activation pathways (FIGS. 25B and 25E) | MASP-2 were able to strongly activate both the C3 and C4 complement proteins | Application of rMASP-2 resulted in a strong positive dose dependent enhancement of the C4 deposition via both the Ficolin-3 and MBL activation pathways (FIGS. 25B and 25E)
B2 |  | MASP-1 were able to activate both the C3 and C4 complement proteins | 
